Experimental findings from US20210324028A1 (Pfizer, published 2021) are described below.

One experiment concerns the target T1, human IL-15Rα (human, UniProt Q13261 31-205, limits assumed).
T1 construct: also called hIL-15Rα; IL-15 receptor alpha
Briefly: SPR, steady state. A general note: In SPR one partner is held on a chip, and binding of the other changes the refractive index at the surface.

The target of experiment [1] is T2, human IL-2Rβ (human, UniProt P14784 27-240, limits assumed).
T2 construct: also called hIL-2Rβ; IL-2 receptor beta
T2 sequence (looked up): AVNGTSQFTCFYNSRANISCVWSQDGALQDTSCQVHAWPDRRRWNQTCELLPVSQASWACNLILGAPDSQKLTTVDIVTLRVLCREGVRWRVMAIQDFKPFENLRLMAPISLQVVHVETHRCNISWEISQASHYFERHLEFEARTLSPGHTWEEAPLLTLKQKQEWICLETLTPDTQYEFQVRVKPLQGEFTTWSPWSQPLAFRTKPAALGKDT
Briefly: SPR 37C.

For experiment [2], the target named is T2, human IL-2Rβ. Kind of experiment: SPR, fusion captured. The protocol:
Anti-human Fc sensor chips were prepared at 25° C. with a running buffer of 10 mM HEPES, 150 mM NaCl, 0.05% (v/v) Tween-20, pH 7.4. All surfaces of a Biacore CM4 sensor chip were activated with a 1:1 (v/v) mixture of 400 mM EDC and 100 mM NHS for 7 minutes, at a flow rate of 10 μL/min. An anti-human Fc reagent (Goat anti-human IgG Fc-γ specific, SouthernBiotech, Birmingham, Ala., Catalog #2014-01) was diluted to 50 μg/mL in 10 mM sodium acetate (pH 4.5) and injected on all flow cells for 7 minutes at 20 μL/min. All flow cells were blocked with 100 mM ethylenediamine in 200 mM Borate buffer pH 8.5 for 7 minutes at 10 μL/min.
All protein interaction experiments were performed at 37° C. using a running buffer of 10 mM HEPES, 150 mM NaCl, 0.05% (v/v) Tween-20, pH 7.4, 1 mg/mL BSA. Anti-PD-1-hIL-15 fusion proteins were captured at 10 μg/mL at a flow rate of 10 μL/min for 2 minutes. Different fusion proteins were captured in flow cells 2, 3 and 4. No protein was captured onto flow cell 1 which was used as a reference surface. […] After each analyte injection, dissociation was monitored for 5 minutes followed by regeneration of all flow cells with three 60-second injections of 75 mM phosphoric acid. […] For kinetic analysis, the double-referenced sensorgrams were fit globally to a simple 1:1 Langmuir with mass transport binding model using Biacore T200 Evaluation Software version 2.0. For steady-state affinity analysis, the double-referenced equilibrium binding responses were fit with a 1:1 Langmuir steady-state model using Biacore T200 Evaluation Software version 2.0.

Where only a bound is given, the exact number is not on record here.

T1 sequence (Q13261 31-205 limits assumed): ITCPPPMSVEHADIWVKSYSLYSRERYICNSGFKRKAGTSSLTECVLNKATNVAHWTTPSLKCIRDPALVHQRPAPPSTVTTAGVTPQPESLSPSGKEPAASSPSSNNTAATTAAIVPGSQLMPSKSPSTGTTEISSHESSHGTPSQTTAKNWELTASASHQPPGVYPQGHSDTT

B1: hIL-15 V49R/D8N (ligand)
chain: NWVNVISNLKKIEDLIQSMHIDATLYTESDVHPSCKVTAMKCFLLELQRISLESGDASIHDTVENLIILANNSLSSNGNVTESGCKECEELEEKNIKEFLQSFVHIVQMFINTGGGGSGHHHHHHHHGGGLNDIFEAQKIEWHE
A word on the Kd: it is a measure of binding affinity in units of concentration. B1 registered a Kd in the experiment with human IL-15Rα of 119 nM. Further, in the experiment with human IL-2Rβ [1], the binding result is “no binding”.

B2: hIL-15 V49R/D61N (ligand)
chain: NWVNVISDLKKIEDLIQSMHIDATLYTESDVHPSCKVTAMKCFLLELQRISLESGDASIHNTVENLIILANNSLSSNGNVTESGCKECEELEEKNIKEFLQSFVHIVQMFINTGGGGSGHHHHHHHHGGGLNDIFEAQKIEWHE
B2 came in with a Kd in the experiment with human IL-15Rα of 121 nM. For the same molecule, in the experiment with human IL-2Rβ [1], the binding result is listed as “no binding”.

B3: hIL-15 V49R/N65S (ligand)
chain: NWVNVISDLKKIEDLIQSMHIDATLYTESDVHPSCKVTAMKCFLLELQRISLESGDASIHDTVESLIILANNSLSSNGNVTESGCKECEELEEKNIKEFLQSFVHIVQMFINTGGGGSGHHHHHHHHGGGLNDIFEAQKIEWHE
In turn, B3 showed a Kd with human IL-15Rα of 158 nM. Besides, the binding result with human IL-2Rβ [1] is reported as “no binding”.

B4: hIL-15 V49R/I68S (ligand)
chain: NWVNVISDLKKIEDLIQSMHIDATLYTESDVHPSCKVTAMKCFLLELQRISLESGDASIHDTVENLISLANNSLSSNGNVTESGCKECEELEEKNIKEFLQSFVHIVQMFINTGGGGSGHHHHHHHHGGGLNDIFEAQKIEWHE
In the case of B4, binding with human IL-15Rα was put at a Kd of 104 nM. Besides, the binding result with human IL-2Rβ [1] is “no binding”.

B5: hIL-15 V49R/D61K (ligand)
chain: NWVNVISDLKKIEDLIQSMHIDATLYTESDVHPSCKVTAMKCFLLELQRISLESGDASIHKTVENLIILANNSLSSNGNVTESGCKECEELEEKNIKEFLQSFVHIVQMFINTGGGGSGHHHHHHHHGGGLNDIFEAQKIEWHE
Molecule B5 showed a Kd in the experiment with human IL-15Rα of 116 nM. For the same molecule, the binding result with human IL-2Rβ [1] is “no binding”.

B6: hIL-15 V49R/N65A (ligand)
chain: NWVNVISDLKKIEDLIQSMHIDATLYTESDVHPSCKVTAMKCFLLELQRISLESGDASIHDTVEALIILANNSLSSNGNVTESGCKECEELEEKNIKEFLQSFVHIVQMFINTGGGGSGHHHHHHHHGGGLNDIFEAQKIEWHE
Molecule B6 returned a Kd with human IL-15Rα of 202 nM. Further, the binding result with human IL-2Rβ [1] is on record as “no binding”.

B7: hIL-15 V49R/I68D (ligand)
chain: NWVNVISDLKKIEDLIQSMHIDATLYTESDVHPSCKVTAMKCFLLELQRISLESGDASIHDTVENLIDLANNSLSSNGNVTESGCKECEELEEKNIKEFLQSFVHIVQMFINTGGGGSGHHHHHHHHGGGLNDIFEAQKIEWHE
On to B7, for which binding in the experiment with human IL-15Rα was put at a Kd of 106 nM. Further, the binding result with human IL-2Rβ [1] is recorded as “no binding”.

B8: hIL-15 V49R/N4K (ligand)
chain: NWVKVISDLKKIEDLIQSMHIDATLYTESDVHPSCKVTAMKCFLLELQRISLESGDASIHDTVENLIILANNSLSSNGNVTESGCKECEELEEKNIKEFLQSFVHIVQMFINTGGGGSGHHHHHHHHGGGLNDIFEAQKIEWHE
In the experiment with human IL-15Rα, B8 had a Kd of 73.1 nM. For the same molecule, the binding result in the experiment with human IL-2Rβ [1] is “no binding”.

B9: hIL-15 V49R/N4S (ligand)
chain: NWVSVISDLKKIEDLIQSMHIDATLYTESDVHPSCKVTAMKCFLLELQRISLESGDASIHDTVENLIILANNSLSSNGNVTESGCKECEELEEKNIKEFLQSFVHIVQMFINTGGGGSGHHHHHHHHGGGLNDIFEAQKIEWHE
On to B9, for which, in the experiment with human IL-15Rα, the dissociation constant (Kd) was determined as 94.7 nM. In addition, the binding result with human IL-2Rβ [1] is “no binding”.

B10: hIL-15 V49R/I68K (ligand)
chain: NWVNVISDLKKIEDLIQSMHIDATLYTESDVHPSCKVTAMKCFLLELQRISLESGDASIHDTVENLIKLANNSLSSNGNVTESGCKECEELEEKNIKEFLQSFVHIVQMFINTGGGGSGHHHHHHHHGGGLNDIFEAQKIEWHE
Regarding B10, the Kd in the experiment with human IL-15Rα was 94.2 nM. The binding result with human IL-2Rβ [1] is reported as “no binding”.

B11: hIL-15 V49R/E64K (ligand)
chain: NWVNVISDLKKIEDLIQSMHIDATLYTESDVHPSCKVTAMKCFLLELQRISLESGDASIHDTVKNLIILANNSLSSNGNVTESGCKECEELEEKNIKEFLQSFVHIVQMFINTGGGGSGHHHHHHHHGGGLNDIFEAQKIEWHE
In turn, B11 displayed a Kd with human IL-15Rα of 164 nM. In the experiment with human IL-2Rβ [1], the binding result was “no binding”.

B12: hIL-15 V49R/D8S (ligand)
chain: NWVNVISSLKKIEDLIQSMHIDATLYTESDVHPSCKVTAMKCFLLELQRISLESGDASIHDTVENLIILANNSLSSNGNVTESGCKECEELEEKNIKEFLQSFVHIVQMFINTGGGGSGHHHHHHHHGGGLNDIFEAQKIEWHE
Regarding B12, the affinity in the experiment with human IL-15Rα, expressed as Kd, was 124 nM. For the same molecule, the binding result with human IL-2Rβ [1] is given as “no binding”.

B13: hIL-15 V49R/D61S (ligand)
chain: NWVNVISDLKKIEDLIQSMHIDATLYTESDVHPSCKVTAMKCFLLELQRISLESGDASIHSTVENLIILANNSLSSNGNVTESGCKECEELEEKNIKEFLQSFVHIVQMFINTGGGGSGHHHHHHHHGGGLNDIFEAQKIEWHE
In turn, B13 displayed a Kd with human IL-15Rα of 102 nM. Also, the binding result with human IL-2Rβ [1] is on record as “no binding”.

B14: xmPD-1-hIL15 V49R/E46G/N1G/N4Q/D30N (other)
heavy 1: EVQLVESGGGLVKPGGSLELSCAASGFTFSSYWMSWVRQAPEKGLEWVAAISPSGGSTYYADSVKGRFTISRDNAKNTLFLQMTSLRSEDTAMYYCAKESWGAYYDLWGQGTTVTVSSASTKGPSVFPLAPSSKSTSGGTAALGCLVKDYFPEPVTVSWNSGALTSGVHTFPAVLQSSGLYSLSSVVTVPSSSLGTQTYICNVNHKPSNTKVDKKVEPKSCDKTHTCPPCPAPEAAGAPSVFLFPPKPKDTLMISRTPEVTCVVVDVSHEDPEVKFNWYVDGVEVHNAKTKPREEQYNSTYRVVSVLTVLHQDWLNGKEYKCKVSNKALPAPIEKTISKAKGQPREPQVYTLPPCREEMTKNQVSLSCAVKGFYPSDIAVEWESNGQPENNYKTTPPVLDSDGSFFLVSKLTVDKSRWQQGNVFSCSVMHEALHNHYTQKSLSLSPGSGGGGSGGGGSGGGGGWVQVISDLKKIEDLIQSMHIDATLYTESNVHPSCKVTAMKCFLLGLQRISLESGDASIHDTVENLIILANNSLSSNGNVTESGCKECEELEEKNIKEFLQSFVHIVQMFINTS
heavy 2: EVQLVESGGGLVKPGGSLELSCAASGFTFSSYWMSWVRQAPEKGLEWVAAISPSGGSTYYADSVKGRFTISRDNAKNTLFLQMTSLRSEDTAMYYCAKESWGAYYDLWGQGTTVTVSSASTKGPSVFPLAPSSKSTSGGTAALGCLVKDYFPEPVTVSWNSGALTSGVHTFPAVLQSSGLYSLSSVVTVPSSSLGTQTYICNVNHKPSNTKVDKKVEPKSCDKTHTCPPCPAPEAAGAPSVFLFPPKPKDTLMISRTPEVTCVVVDVSHEDPEVKFNWYVDGVEVHNAKTKPREEQYNSTYRVVSVLTVLHQDWLNGKEYKCKVSNKALPAPIEKTISKAKGQPREPQVCTLPPSREEMTKNQVSLWCLVKGFYPSDIAVEWESNGQPENNYKTTPPVLDSDGSFFLYSKLTVDKSRWQQGNVFSCSVMHEALHNHYTQKSLSLSPGK
light: DIVMTQSPSSLSVSAGDKVTMSCRASQGISSWLAWYQQKPWQPPKLLIYKASTLESGVPDRFTGSGSGTDFTLTISSVQAEDLAVYYCQQSYSTPWTFGGGTKLEIKGTVAAPSVFIFPPSDEQLKSGTASVVCLLNNFYPREAKVQWKVDNALQSGNSQESVTEQDSKDSTYSLSSTLTLSKADYEKHKVYACEVTHQGLSSPVTKSFNRGEC
In the case of B14, in the experiment with human IL-2Rβ [2], the Kd was greater than 1500 nM.
